# Measurements taken from patent US20240052061A1 (published 2024).
# Positions count from the first letter of the chain named. Names and notes keep the numbering of the source.
# T1: human ecto-nucleoside triphosphate diphosphohydrolase-3 (NTPDase3) (human, UniProt O75355 1-529)
# T1 chain: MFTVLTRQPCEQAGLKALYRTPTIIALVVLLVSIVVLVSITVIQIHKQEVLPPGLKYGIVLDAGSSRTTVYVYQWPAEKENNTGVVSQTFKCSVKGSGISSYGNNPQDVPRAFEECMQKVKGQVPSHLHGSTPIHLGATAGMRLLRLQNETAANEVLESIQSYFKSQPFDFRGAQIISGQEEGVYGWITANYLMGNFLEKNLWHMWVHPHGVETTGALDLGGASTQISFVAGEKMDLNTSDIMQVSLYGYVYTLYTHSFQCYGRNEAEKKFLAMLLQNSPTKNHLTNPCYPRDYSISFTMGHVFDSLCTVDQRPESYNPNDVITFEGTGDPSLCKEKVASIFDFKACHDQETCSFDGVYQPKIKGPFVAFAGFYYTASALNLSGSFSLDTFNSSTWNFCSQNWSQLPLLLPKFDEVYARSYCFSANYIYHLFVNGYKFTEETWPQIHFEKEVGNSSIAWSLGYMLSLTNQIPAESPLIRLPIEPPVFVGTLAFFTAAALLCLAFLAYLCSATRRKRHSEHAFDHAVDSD
# B1: 44H5 Hu/Ra (antibody, V domains shown)
# VH: QEQLEESGGDLVKPEGSLTLTCTASGFDSSSTYYMCWVRQAPGKGLEWSGCIYTGGLTYYASWAKGRFTISKTSSTTVTLQMTSLTAADTATYFCASYIGSRFYMPGFSLWGPGTLVTVSS
# VL: AIVMTQTPSSKSVPVGDTVTINCQASESIYSNNRLAWFQQKPGQPPKLLIYLASTLASGVPSRFKGSGSGTQFTLTISDVVCDDAATYYCAGYKGSSTDGTAFGGGTEVVVKG
# B2: 38D12 Hu/Ra (antibody, V domains shown)
# VH: QSVEESGGRLVTPGTPLTLTCTVSGFSLSSYVINWVRQAPGKGLEWIGTISSSGSTYYASWAKGRFTISTTSSTTVDLKITSPTTEDTATYFCARGADGAFISDYFNIWGPGTLVTVSS
# VL: DIVMTQTPSSVSAAVGGTVTIKCQANENIDSWLAWYQQKPGQRPKLLIYYASTLASGVPSRFKGSGSGTEYTLTISDLECADGATYYCQSYDTISDYGVGFGGGTEVVVKG
# B3: 3E9 Hu/Ra (antibody, V domains shown)
# VH: QSLEESGGDLVKPGASLTLTCTASGFSFSSSDWICWVRQAPGKGLEWIACIYAGSIGGAYFASWVNGRFTISRASSTTVTLQMTSLTAADTATYFCARSSSNGRLKLDQFDLWGPGTLVTVSS
# VL: AYDMTQTPASVEVAVGGTVTINCQASQSIGGWLSWYRQKPGQPPSLLIYKASTLASGVSSRFSGTGSRTHFTLTINGVQCADAATYYCQQGSAADVANTFGGGTEVVVKG
# B4: 37H1 Hu/Ra (antibody, V domains shown)
# VH: QSVEESGGRLVTPGTPLTLTCTVSGFSLSSYAVGWVRQAPGKGLEFIGIITYNGATYYASWAEGRFPISKTSSTTVDLKMTSPTTEDTATYFCARARYGGYSTNSYYLNIWGPGTLVTVSS
# VL: DVVMTQTPASVSAAVGGTVTINCQASENIYRILAWYQQKPGQRPKLLIYGASNLETGVPSRFKGSGSGTEYTLTISDLECDDAATYYCQGVLWNSNDSTFGGGTEVVVKG
# B5: 4F9 Hu/Ra (antibody, V domains shown)
# VH: B4 VH with V33M, A55N, E63K
# VL: B4 VL with W93Y
# B6: 16D4 Hu/Ra (antibody, V domains shown)
# VH: B4 VH with V33M, A55G, E63K
# VL: B4 VL with I32V, W93Y, N94D, S95N
# B7: 42D8 Hu/Ra (antibody, V domains shown)
# VH: B4 VH with V33M, G54S, A55N, S60N, E63K
# VL: B4 VL with R43P, W93Y
# B8: 38D5 hIgG1 (antibody, V domains shown)
# VH: EQQLLESGGGLVQPGGSLRLSCAASGIDFNNYGISWVRQAPGKGLEWIAYKYPGFGIRNYANSVKGRFTISSDNSKNTVYLQMNSLRAEDTAVYFCARGARYRHDDYGALNLWGPGTLVTVSS
# VL: DIQMTQSPSTLSASVGDRVTITCQASQSVTNLLAWYQQKPGKPPKLLIYGASNLESGVPSRFSGSGSGTEFTLTISSLQPDDFATYYCQSGYYSANTFGPGTKVDIK
# B9: humanized 38D5 hIgG1 variant LC.1 (P43A) (antibody, V domains shown)
# VH: B8 VH
# VL: B8 VL with P43A
# B10: PBI #30 hIgG1 (antibody, V domains shown)
# VH: QVQLQESGGGLIQPGGSLRLSCAASGFTSSSSDYAMSWVRQAPGKGLEWVSSISGSGGSTYYADSVKGRFTISRDNSKNTLYVQMTSLTAEDTAVYYCAKVVGYSMYDYYYHYALDVWGQGTTVTVSS
# VL: QPVLTQPPSASGTPGQRVTISCSGSSSNIGSNTVNWYQQLPGTAPKLLIYSNNQRPSGVPDRFSGSKSGTSASLTISGLKTEDEAGYYCQSYDTSNVVFGGGTKVTVLG
# B11: PBI #30af8 hIgG1 (antibody, V domains shown)
# VH: B10 VH with T28Q, S30D, S56T, Y104F, M106T
# VL: QPVLTQPPSASGTPGQRVTISCSGSSSNIGSNTVNWYQQLPGTAPKLLIYSDDQRPSGVPDRFSGSKSGTSASLTISGLKTEDEAGYYCQSYDTSNVVFGGGTKVTVL
# B12: PBI #30af6 hIgG1 (antibody, V domains shown)
# VH: B10 VH with V102F
# VL: B11 VL with V18I, D52N, D53N, Y92D
# B13: PBI #30af4 hIgG1 (antibody, V domains shown)
# VH: B10 VH with G58V, M106V
# VL: B11 VL with D53N, Y92D
# B14: PBI #30af8 hIgG4 (antibody, V domains shown)
# VH: B10 VH with T28Q, S30D, S56T, Y104F, M106T
# VL: B11 VL
# B15: PBI #30af6 hIgG4 (antibody, V domains shown)
# VH: B10 VH with V102F
# VL: B11 VL with V18I, D52N, D53N, Y92D
# B16: PBI #30af7 hIgG4 (antibody, V domains shown)
# VH: B10 VH with S29T, V101D, M106T
# VL: B11 VL with I29V, D52N, D53N
# B17: PBI #30af7 hIgG1 (antibody, V domains shown)
# VH: B10 VH with S29T, V101D, M106T
# VL: B11 VL with I29V, D52N, D53N
# B18: PBI #30af4 hIgG4 (antibody, V domains shown)
# VH: B10 VH with G58V, M106V
# VL: B11 VL with D53N, Y92D
# Target: T1, human ecto-nucleoside triphosphate …
# Assay: flow cytometry; CHO-hENTPD3 cells
row,Kd,Binder
1,0.95 nM,B1
2,8.3 nM,B2
3,1.94 nM,B3
4,2.26 nM,B4
5,1.52 nM,B5
6,1.94 nM,B6
7,1.96 nM,B7

# Target: T1, human ecto-nucleoside triphosphate …
# Assay: flow cytometry; CHO-hENTPD3 cells
# Remark: another data set of the same source
row,Kd,Binder
1,0.89 nM,B8
2,1.5 nM,B9

# Target: T1, human ecto-nucleoside triphosphate …
# Assay: flow cytometry; RT4 cells
row,Kd,Binder
1,1.15 nM,B1
2,2.63 nM,B2
3,0.16 nM,B4
4,0.19 nM,B5
5,0.2 nM,B6

# Target: T1, human ecto-nucleoside triphosphate …
# Assay: flow cytometry; CHO-hENTPD3 cells
# Remark: another data set of the same source
row,Kd,Binder
1,0.56 nM,B8

# Target: T1, human ecto-nucleoside triphosphate …
# Assay: flow cytometry; HEK293T-hENTPD3 cells
row,Kd,Binder
1,4.34 nM,B8

# Target: T1, human ecto-nucleoside triphosphate …
# Assay: flow cytometry; HEK293T-hENTPD3 cells
# Remark: another data set of the same source
row,Kd,Binder
1,0.15 nM,B1
2,3.06 nM,B2
3,1.79 nM,B3
4,1.4 nM,B4
5,0.46 nM,B5
6,0.38 nM,B6
7,0.55 nM,B7

# Target: T1, human ecto-nucleoside triphosphate …
# Assay: flow cytometry; COS7-hENTPD3 cells
row,Kd,Binder
1,0.52 nM,B8
2,0.85 nM,B9

# Target: T1, human ecto-nucleoside triphosphate …
# Assay: flow cytometry; CHO-hENTPD3 cells, 20 min at 4°C
row,Kd,Binder
1,20.9 nM,B10

# Target: T1, human ecto-nucleoside triphosphate …
# Assay: flow cytometry; COS7-hENTPD3 cells
# Remark: another data set of the same source
row,Kd,Binder
1,0.56 nM,B8

# Target: T1, human ecto-nucleoside triphosphate …
# Assay: flow cytometry; COS7-hENTPD3 cells
# Remark: another data set of the same source
row,Kd,Binder
1,0.3 nM,B1
2,2.8 nM,B2
3,0.63 nM,B3
4,0.54 nM,B4
5,0.45 nM,B5
6,0.8 nM,B6
7,0.64 nM,B7

# Target: T1, human ecto-nucleoside triphosphate …
# Assay: flow cytometry; CHO-hENTPD3 cells
# Remark: another data set of the same source
row,Kd,Binder
1,1.8 nM,B11
2,1.85 nM,B12
3,1.62 nM,B13
4,1.9 nM,B14
5,2.18 nM,B15
6,1.64 nM,B10
7,2.61 nM,B16
8,1.87 nM,B17
9,1.82 nM,B18

# Target: T1, human ecto-nucleoside triphosphate …
# Assay: flow cytometry; COS7-hENTPD3 cells
# Remark: another data set of the same source
row,Kd,Binder
1,1.26 nM,B11
2,1.63 nM,B12
3,1.26 nM,B13
4,1.43 nM,B14
5,1.58 nM,B15
6,2.83 nM,B16
7,1.68 nM,B17
8,1.28 nM,B18
